{"source": "paper PMC1500868", "about": "(Nucleic Acids Research, 2006)", "target": "T1, GST-SAP30L (human, UniProt Q9HAJ7 1-183)", "T1 sequence (looked up)": "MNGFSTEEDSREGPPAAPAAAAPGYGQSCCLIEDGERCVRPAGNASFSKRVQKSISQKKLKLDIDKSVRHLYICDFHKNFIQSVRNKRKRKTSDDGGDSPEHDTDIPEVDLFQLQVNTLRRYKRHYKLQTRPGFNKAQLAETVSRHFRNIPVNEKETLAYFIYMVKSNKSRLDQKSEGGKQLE", "experiment": "pull-down", "data": [{"binder": "in vitro translated N-terminally deleted SAP30L (SAP30L 61–183) (domain or fragment, human, UniProt Q9HAJ7 61-183, looked up, 35S-methionine label) KLDIDKSVRHLYICDFHKNFIQSVRNKRKRKTSDDGGDSPEHDTDIPEVDLFQLQVNTLRRYKRHYKLQTRPGFNKAQLAETVSRHFRNIPVNEKETLAYFIYMVKSNKSRLDQKSEGGKQLE", "values": [{"measurement": "fold change of interaction against full-length SAP30L", "value": "> 2", "unit": "fold"}]}]}
